From patent publication US20150359847A1, “METHOD AND COMPOSITION FOR CONFERRING NEUROPROTECTION” (BLOOD SYSTEMS RESEARCH INSTITUTE, priority 2014, published 2015)

Tested on: phospho-S6 Ribosomal Protein (S235/236) in hippocampus
Assay: Hippocampal phospho-S6RP western blot and tissue staining 3 days post-TBI
Assay type: in vivo, mouse
Description: The mouse controlled cortical impact (CCI) injury model was used as previously described. In brief, mice were anesthetized with 5% isoflurane and 1:1 O2:N2 mixture. Animals were mounted on a stereotaxic frame and were secured by ear bars and an incisor bar. Anesthesia was maintained with 2.0% isoflurane and 1:1 O2:N2 mixture. A 5-mm-diameter craniotomy was made midway between bregma and lambda on the right side, with the medial edge of the craniotomy 1 mm lateral to midline. Injury was produced using a magnetic impactor mounted at an angle of 110° from the vertical plane. A single impact at a velocity of 4+/−0.2 m/s was used inflict a moderate to severe injury (1.2-1.3 mm impact depth). After injury, the incision was closed. Sham animals underwent identical surgeries except for impact injury. Core body temperature was monitored using a rectal thermometer and maintained at 36.8° C.-37.2° C. with a heating pad throughout the procedure. For treatments, TIMP3 (60.0 μg/kg) or vehicle control (PBS) administration was performed at 2, 24, and 48 hrs after injury via tail vein injections in a total volume of 125 μl. Animal research was performed with approval of the Institutional Animal Care and Use Committee at ISIS Services LLC (San Carlos, Calif., USA). Mice received humane care according to the criteria outlined by the National Research Council's Institute of Laboratory Animal Resources in the “Guide for the Care and Use of Laboratory Animals”. Neurocognitive testing conducted at UT Houston was in compliance with University of Texas Houston Institutional Animal Care and Use Committee.
Following treatments mice were subjected to a intra-cardiac perfusion-fixation procedure under isoflurane anesthesia. In brief, following a small incision into the right ventricle, a blunt needle was placed 5 mm into the heart and clamped in place. The left atrium was cut and 30 mls of ice cold PBS was perfused through the mouse using a syringe pump at a constant rate of 4 ml/min. After PBS the procedure was repeated with 30 ml of 4% ice-cold paraformaldehyde (PFA) in PBS. Upon completion of the perfusion procedure, brains were dissected out and placed in 20 mls of 4% PFA for a further 24 hrs before transferring to a 30% sucrose solution for an additional 48 hrs. Following sucrose infiltration, brains were frozen in Tissue-Tek O.C.T.™ compound (Cat#4583, Sakura Fineteck USA, Inc. Torrance, Calif.) using an isopentane/dry ice bath. To prepare coronal sections for tissue staining 20 μm thick sections were obtained using a Leica CM1850™ cryostat (Leica Microsystems, Buffalo Grove, Ill.). Sections were immediately placed in a Storage Solution (30% Glycerol, 30% Ethylene Glycol, 40% 0.1M Phosphate Buffer pH 7.2) and stored at −20° C. until required.
The same protocol was adopted for both tissue sections and isolated neuronal cultures. Briefly, sections were permeabilized with antibody staining solution:—2% w/v BSA (Cat# A3059. Sigma, St Louis, Mo.), 0.1% Triton X-100™ (Cat# X100. Sigma, St Louis, Mo.), 2% v/v goats serum (Cat# S-1000, Vector Labs, Burlingame, Calif.) in PBS. Sections were incubated overnight with primary antibodies on a rotating shaker at 4° C. Sections were then washed three times for 3 min with PBS, and then incubated with secondary antibodies for 1 hr. After staining, sections were washed in PBS, briefly air dried, and coverslipped using Prolong™ gold anti-fade reagent with DAPI (Cat# P36931, Life Technologies, Grand Island, N.Y.). Isolated neuronal cultures underwent the same staining protocol with the exception of the last step in which Prolong gold anti-fade reagent with DAPI was added to the wells of the culture plate sufficient to cover the material. Images were obtained using a Leica DMI6000-B™ inverted microscope, Leica DFC36-FX™ digital camera and Leica Application Suite™ (L.A.S.) software, version 3.1. […]

B1: TIMP3: Recombinant tissue inhibitor of matrix metalloproteinase-3, a soluble protein released by MSCs, obtained from Amgen Inc. (protein)
chain: CTCSPSHPQDAFCNSDIVIRAKVVGKKLVKEGPFGTLVYTIKQMKMYRGFTKMPHVQYIHTEASESLCGLKLEVNKYQYLLTGRVYDGKMYTGLCNFVERWDQLTLSQRKGLNYRYHLGCNCKIKSCYYLPCFVTSKNECLWTDMLSNFGYPGYQSKHYACIRQKGGYCSWYRGWAPPDKSIINATDP
ipsilateral hippocampal phospho-S6RP levels versus sham controls (3 days post-TBI, western blot): are not significantly elevated in TBI alone versus sham controls unlike IV TIMP3 treated animals versus Sham controls
phospho-S6 Ribosomal Protein (S235/236) in ipsilateral hippocampal homogenates (TIMP3 60 μg/kg IV x3, day 3, western blot, vs TBI alone): significantly elevates
phospho-S6RP pixel density in area CA3 (day 3, tissue staining): significant elevation
phospho-S6RP/NeuN+ve neurons in the GCL proximal to injury site (day 3, tissue staining): an elevation with TIMP3 treatment
phospho-S6RP (S235/236) in contralateral hippocampal homogenates (day 3, western blot): No differences were observed
phosphorylated S6RP staining in the non-neuronal molecular layer (microglia/astrocytes) (ipsilateral hippocampus, day 3): Neither sham controls nor TIMP3 treated TBI mice showed this pattern of staining
